Measurements reported in US20200165335A1 (Seagen, published 2020).
Changes are numbered by the printed parent chain. Several values for one entry are separate records, joined by “and”; a condition that tells them apart may be missing. Equal entries are not always repeated.

B1: humanized BR2-14a antibody HBLB (hLIV14) (antibody, human IgG1, V domains shown)
VH: QVQLVQSGAEVKKPGASVKVSCKASGYTIEDYYMHWVRQAPGQGLEWMGWIDPENGDTEYAPTFQGRVTMTRDTSINTAYMELSRLRSDDTAVYYCARHDAHYGTWFAYWGQGTLVTVSS
VL: DVVMTQSPLSLPVTLGQPASISCRSSQSIIRNDGNTYLEWYQQRPGQSPRRLIYRVSNRFSGVPDRFSGSGSGTDFTLKISRVEAEDVGVYYCFQGSHVPYTFGGGTKVEIKR
notes: also called hLIV-14 HBLB WT; LIV-1 mAb HBLB
B2: humanized BR2-22a antibody HGLG (hLIV22) (antibody, V domains shown)
VH: B1 VH with Y27L, A61G, T63K, R98V, D100N
VL: B1 VL with I29L, I30L, R31H, N32S, D33S, R51P, R55K, V56I, N58T
notes: Only variable regions tied to the tested antibody; also called humanized LIV22 antibody; hLIV-22 HG + hLIV-22 LG
B3: mouse monoclonal antibody BR2-22a (antibody, mouse IgG1, V domains shown)
VH: EVQLQQSGAELVRSGASVKLSCTASGLNIEDYYMHWVKQRPEQGLEWIGWIDPENGDTEYGPKFQGKATMTADTSSNTAYLQLSSLTSGDTAVYYCTVHNAHYGTWFAYWGQGTLVTVSA
VL: DVLMTQTPLSLPVSLGDQASISCRSSQSLLHSSGNTYLEWYLQRPGQSPKPLIYKISTRFSGVPDRFSGSGSGTDFTLKISRVEAEDLGLYYCFQGSHVPYTFGGGTKLEIKR
notes: also called mAb2; parental BR2-22a

Legend:
human LIV-1 [1] = biological target: T1, human LIV-1 (human, UniProt Q13433 29-755); experiment: saturation binding, CHO cells expressing human or cyno LIV-1 (FIG. 22)
T1 construct: also called hLIV-1; Q13433
T1 sequence: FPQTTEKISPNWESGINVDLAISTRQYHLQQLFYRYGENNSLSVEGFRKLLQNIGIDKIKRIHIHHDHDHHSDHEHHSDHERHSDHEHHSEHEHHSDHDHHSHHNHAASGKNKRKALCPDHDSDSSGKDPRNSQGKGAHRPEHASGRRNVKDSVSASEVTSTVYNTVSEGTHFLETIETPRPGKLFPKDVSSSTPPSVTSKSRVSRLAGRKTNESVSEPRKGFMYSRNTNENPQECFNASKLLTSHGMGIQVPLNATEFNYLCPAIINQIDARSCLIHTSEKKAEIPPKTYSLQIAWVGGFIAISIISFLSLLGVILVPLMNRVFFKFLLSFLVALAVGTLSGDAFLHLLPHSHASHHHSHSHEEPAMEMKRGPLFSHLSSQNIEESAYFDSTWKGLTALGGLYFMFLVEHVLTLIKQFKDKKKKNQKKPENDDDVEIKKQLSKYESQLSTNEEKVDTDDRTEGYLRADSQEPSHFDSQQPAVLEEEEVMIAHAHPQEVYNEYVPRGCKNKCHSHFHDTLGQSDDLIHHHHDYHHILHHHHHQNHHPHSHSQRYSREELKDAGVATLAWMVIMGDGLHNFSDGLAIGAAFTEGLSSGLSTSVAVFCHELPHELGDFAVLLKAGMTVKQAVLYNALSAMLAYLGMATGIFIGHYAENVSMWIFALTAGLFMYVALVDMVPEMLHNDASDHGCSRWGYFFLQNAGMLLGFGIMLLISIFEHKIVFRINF

human LIV-1 [2] = biological target: T1, human LIV-1; experiment: comparison of the EC50s of Table 3, CHO cells expressing human LIV-1
Method: (§1) 1×10⁵ CHO cells expressing recombinant human LIV-1 in PBS/BSA were aliquoted into each well of a 96-well v-bottom plates on ice. […] Cells were pelleted and washed 3 times with PBS/BSA. The cells were pelleted and resuspended in 125 μL of PBS/BSA. Fluorescence was analyzed by flow cytometry, using percent of saturated fluorescent signal to determine percent labeled murine LIV-1 mAb bound and to subsequently extrapolate the EC50 by fitting the data to a sigmoidal dose-response curve with variable slope.

human LIV-1 [3] = biological target: T2, human LIV-1 (UniProt Q13433 29-755); experiment: competition binding on CHO hLIV1 cells
T2 chain: T1 sequence

human LIV-1 [4] = biological target: T1, human LIV-1; experiment: average of several saturation binding curves, flow cytometry, MCF7 cells
human LIV-1 [5] = biological target: T2, human LIV-1; experiment: saturation binding, flow cytometry on MCF7 cells; AF-labeled
human LIV-1 [6] = biological target: T1, human LIV-1; experiment: competition flow cytometry, CHO cells expressing human LIV-1, vs 5 nM AF647-labelled BR2-14a
Method: as §1

cynomolgus monkey LIV-1 [7] = biological target: T3, cynomolgus monkey LIV-1 (cynomolgus monkey, UniProt Q5R9M9 28-743 (Pongo abelii entry)); experiment: EC50 determination, CHO cells expressing recombinant cyno LIV-1
T3 construct: Recombinant on transfected CHO cells; also called cyno LIV-1; cyLIV-1
T3 chain: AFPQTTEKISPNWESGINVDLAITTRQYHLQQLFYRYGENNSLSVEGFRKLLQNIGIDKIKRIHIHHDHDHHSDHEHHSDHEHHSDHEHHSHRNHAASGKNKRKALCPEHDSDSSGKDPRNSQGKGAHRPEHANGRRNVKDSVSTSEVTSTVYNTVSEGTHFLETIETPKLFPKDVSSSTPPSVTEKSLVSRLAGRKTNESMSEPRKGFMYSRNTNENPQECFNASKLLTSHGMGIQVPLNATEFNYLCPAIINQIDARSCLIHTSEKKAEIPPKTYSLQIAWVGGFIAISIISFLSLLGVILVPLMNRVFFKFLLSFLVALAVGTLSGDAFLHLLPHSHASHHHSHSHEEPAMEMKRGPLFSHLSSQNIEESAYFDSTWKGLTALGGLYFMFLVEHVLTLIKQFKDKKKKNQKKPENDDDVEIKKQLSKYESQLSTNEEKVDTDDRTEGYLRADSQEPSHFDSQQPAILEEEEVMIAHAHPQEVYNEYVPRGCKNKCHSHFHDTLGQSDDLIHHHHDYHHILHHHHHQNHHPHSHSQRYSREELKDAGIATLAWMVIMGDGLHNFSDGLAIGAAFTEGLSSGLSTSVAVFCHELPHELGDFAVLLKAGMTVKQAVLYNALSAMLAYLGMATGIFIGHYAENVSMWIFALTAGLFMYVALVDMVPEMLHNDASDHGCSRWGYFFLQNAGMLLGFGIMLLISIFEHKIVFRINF
Method: as §1, with “recombinant cyno” for “recombinant human”, “in PBS” for “in PBS/BSA”, “aliquoted in” for “aliquoted into”, “with PBS.” for “with PBS/BSA.”

cynomolgus monkey LIV-1 [8] = biological target: T4, cynomolgus monkey LIV-1; experiment: saturation binding on CHO cells; apparent Kd
T4 chain: T3 chain

human LIV-1 [9] = biological target: T2, human LIV-1; experiment: saturation binding on CHO cells; apparent Kd
human LIV-1 [10] = biological target: T1, human LIV-1; experiment: saturation binding, CHO cells expressing human LIV-1 (FIG. 22)
cynomolgus monkey LIV-1 [11] = biological target: T3, cynomolgus monkey LIV-1; experiment: saturation binding, CHO cells expressing cyno LIV-1 (FIG. 22)
human LIV-1 [12] = biological target: T1, human LIV-1; experiment: competition flow cytometry, CHO cells expressing recombinant LIV-1, vs 5 nM AF647-labelled BR2-22a
Method: 1×10⁵ CHO cells expressing recombinant LIV-1 in PBS were aliquoted into each well of a 96-well v-bottom plates on ice. […] Cells were pelleted and washed 3 times with PBS. The cells were then pelleted and resuspended in 125 μL of PBS/BSA. Fluorescence was analyzed by flow cytometery, using percent of saturated fluorescent signal to determine percent labeled humanized BR2-22a antibody bound and to subsequently extrapolate the EC50 by fitting the data to a sigmoidal dose-response curve with variable slope.
All permutations of these five heavy chains and six light chains were then tested in a competition assay compared with BR2-22a (see FIG. 17).

human LIV-1 [13] = biological target: T1, human LIV-1; experiment: saturation binding of AF647-labelled antibody, flow cytometry, 293F (hLIV-1) cells
Method: (§2) 1×10⁵ antigen expressing cells (either MCF7 cells expressing human LIV-1, 293F cells, a transfected CHO cell line expressing human LIV-1 or a transfected CHO cell line expressing cyno LIV-1) were aliquoted per well of a 96-well v-bottom plates. […] Cells were pelleted and washed 3× with PBS/BSA. The cells were then pelleted and resuspended in 125 μL of PBS/BSA. Fluorescence was analyzed by flow cytometery, using percent of saturated fluorescent signal to determine percent bound and to subsequently calculate apparent Kd.
(§3) The KD for the murine Liv1 of BR2-22a (Table 5) was determined for human LIV-1 expressed as an endogenous protein in a human breast cancer cell line, in 293F cells or as a recombinant protein in a CHO cell line. The KD for BR2-22a was also determined for cyno LIV-1 expressed as a recombinant protein in a CHO cell line.

human LIV-1 [14] = biological target: T2, human LIV-1; experiment: competition binding
cynomolgus monkey LIV-1 [15] = biological target: T3, cynomolgus monkey LIV-1; experiment: saturation binding of AF647-labelled antibody, flow cytometry, CHO cyLIV-1 cells
Method: as §2, §3

human LIV-1 [16] = biological target: T1, human LIV-1; experiment: saturation binding of AF647-labelled antibody, flow cytometry, CHO hLIV-1 cells
Method: as §2, §3

human LIV-1 [17] = biological target: T1, human LIV-1; experiment: saturation binding of AF647-labelled antibody, flow cytometry, MCF7 (ATCC) cells, endogenous hLIV-1
Method: as §2, §3

| Binder | fold affinity for human LIV-1 relative to cynomolgus LIV-1 (human LIV-1 [1]) | fold better binding than the next humanized antibody HBLF (human LIV-1 [2]) | EC50 (human LIV-1 [3]) | Kd (human LIV-1 [4]) | Kd (human LIV-1 [5]) | EC50 (human LIV-1 [6]) | binding result (cynomolgus monkey LIV-1 [7]) | Kd (cynomolgus monkey LIV-1 [8]) | Kd (human LIV-1 [9]) | fold higher affinity (inverse of dissociation constant) than hLIV14 (human LIV-1 [10]) | binding result (cynomolgus monkey LIV-1 [11]) | EC50 (human LIV-1 [12]) | Kd (human LIV-1 [13]) | EC50 (human LIV-1 [14]) | Kd (cynomolgus monkey LIV-1 [15]) | Kd (human LIV-1 [16]) | Kd (human LIV-1 [17]) |
| --- | --- | --- | --- | --- | --- | --- | --- | --- | --- | --- | --- | --- | --- | --- | --- | --- | --- |
| B1 | 2 fold | ≥ 2 fold | 0.642 µg/mL | 1.5 nM | 0.4 µg/mL and 2.9 nM | 0.3 µg/mL | binds | 2.1 nM | 4.3 nM | – | – | – | – | – | – | – | – |
| B2 | – | – | – | – | – | – | – | 1.3 nM | 1.2 nM | ~4 fold | binds | 0.5 µg/mL | – | – | – | – | – |
| B3 | – | – | – | – | – | – | – | – | 1.2 nM | – | – | – | 0.5 nM | 0.3 µg/mL | 4.2 nM | 1.5 nM | 1.1 nM |
